To fix the notation:
B1: POU domain, class 3, transcription factor 2, residues 262 to 338; numbered along this chain, P20265 (parent)
chain: EDTPTSDDLEQFAKQFKQRRIKLGFTQADVGLALGTLYGNVFSQTTICRFEALQLSFKNMCKLKPLLNKWLEEADSS

± gives the uncertainty stated by the source.

The data set covers variants of B1. Kind of data set: abundance fitness (aPCA) (normalised: wild type 0, dead -1); higher = more abundant; growth selection in yeast, the domain comes from the species named. The settings on record: Homo sapiens.
For EDTPTSDDLEQFAKQFKQRRIKLGFTQADVGLALGTLYGNVFSQTTICRFEALQLSFKNMDKLKPLLNKWLEEADSS [C61D], the abundance fitness was -0.291 ± 0.075. Regarding EDTPTSDDLEQFAKQFKQRRIKLGFTQADVGLALGTLYGNVFSQTTICCFEALQLSFKNMCKLKPLLNKWLEEADSS [R49C], the abundance fitness was -0.691 ± 0.1. To EDTPTSDDLEQFAKQFKQRRIKLGFTQADVGLALGTLYGNVFSQTTICSFEALQLSFKNMCKLKPLLNKWLEEADSS [R49S] belongs -0.175 ± 0.034. To EDTPTSDDLEQFAKQFKQRRIKLGFTQADVGLALGTLYGNVFSQTTICRFEALQLSFKNMCKLAPLLNKWLEEADSS [K64A] belongs -0.06 ± 0.035; to EDTPTSDDLEQFAKQFKQRRIKLGFTQADVGLALGTLYGNVFSQTTICRFEALQLSFKNMCKLKPLLNKWLEEADLS [S76L], -0.099 ± 0.033; to EDTPFSDDLEQFAKQFKQRRIKLGFTQADVGLALGTLYGNVFSQTTICRFEALQLSFKNMCKLKPLLNKWLEEADSS [T5F], -0.109 ± 0.094. In the case of EDTPHSDDLEQFAKQFKQRRIKLGFTQADVGLALGTLYGNVFSQTTICRFEALQLSFKNMCKLKPLLNKWLEEADSS [T5H] it was -0.079 ± 0.064. In the case of EDTLTSDDLEQFAKQFKQRRIKLGFTQADVGLALGTLYGNVFSQTTICRFEALQLSFKNMCKLKPLLNKWLEEADSS [P4L], the abundance fitness is 0.164 ± 0.036. On to ESTPTSDDLEQFAKQFKQRRIKLGFTQADVGLALGTLYGNVFSQTTICRFEALQLSFKNMCKLKPLLNKWLEEADSS [D2S], for which the abundance fitness came out at 0.013 ± 0.04. For ETTPTSDDLEQFAKQFKQRRIKLGFTQADVGLALGTLYGNVFSQTTICRFEALQLSFKNMCKLKPLLNKWLEEADSS [D2T], the abundance fitness was found to be 0.039 ± 0.046.

Turning to EDTPTSDDLEQFAKQFKQERIKLGFTQADVGLALGTLYGNVFSQTTICRFEALQLSFKNMCKLKPLLNKWLEEADSS [R19E], the abundance fitness is -0.116 ± 0.039. In the case of EDTPTSDDLEQFAKQFKQPRIKLGFTQADVGLALGTLYGNVFSQTTICRFEALQLSFKNMCKLKPLLNKWLEEADSS [R19P] it was -0.961 ± 0.17. To EDTPTSDDLEQFAKQFKQYRIKLGFTQADVGLALGTLYGNVFSQTTICRFEALQLSFKNMCKLKPLLNKWLEEADSS [R19Y] belongs -0.695 ± 0.33; to EDTPTSDDLEQFAKQFKQHRIKLGFTQADVGLALGTLYGNVFSQTTICRFEALQLSFKNMCKLKPLLNKWLEEADSS [R19H], -0.047 ± 0.067. In the case of EDTPTSDDLEQFAKQFKQRRIKLGFTQADVGLALGTLYGNVFSQTTIIRFEALQLSFKNMCKLKPLLNKWLEEADSS [C48I], the abundance fitness was -0.134 ± 0.061. Consider EDTPTSDDLEQFAKQFKQRRIKLGFTQADVGLALGTLYGNVFSQTTIKRFEALQLSFKNMCKLKPLLNKWLEEADSS [C48K], for which the abundance fitness stood at 0.066 ± 0.047. EDTPTSDDLEQGAKQFKQRRIKLGFTQADVGLALGTLYGNVFSQTTICRFEALQLSFKNMCKLKPLLNKWLEEADSS [F12G]: the abundance fitness was -0.582 ± 0.14. In the case of EDTPTSDDLEQFAKQFKQRRIKLGFTQADVGLALGTLYGNVFSQTRICRFEALQLSFKNMCKLKPLLNKWLEEADSS [T46R] it was -0.376 ± 0.03. In the case of EDTPTSDDLEQFAKQFKQRRIKLGFTQADVGLALGTLYGNVFSQTTKCRFEALQLSFKNMCKLKPLLNKWLEEADSS [I47K] it was -0.701 ± 0.085; in that of EDTPTSDDLEQFAKQFKQRRIKLGFTQADVGLALGTLYGNVFSQTTNCRFEALQLSFKNMCKLKPLLNKWLEEADSS [I47N], -0.798 ± 0.23; in that of EDTPTSDDLEQFAKQFKQRRIKLGFTQADVGLAYGTLYGNVFSQTTICRFEALQLSFKNMCKLKPLLNKWLEEADSS [L34Y], -0.895 ± 0.17. Take EDTPTSDDLEQFAKQFKQRRIKLGFTQADVGLALGTLYGNVFSQTTICRSEALQLSFKNMCKLKPLLNKWLEEADSS [F50S]: the abundance fitness is -0.821 ± 0.075. In the case of SDTPTSDDLEQFAKQFKQRRIKLGFTQADVGLALGTLYGNVFSQTTICRFEALQLSFKNMCKLKPLLNKWLEEADSS [E1S] it was -0.164 ± 0.076. In the case of YDTPTSDDLEQFAKQFKQRRIKLGFTQADVGLALGTLYGNVFSQTTICRFEALQLSFKNMCKLKPLLNKWLEEADSS [E1Y] it was -0.177 ± 0.18; in that of EDTPTSDDLEQFAKQFKQRRIKLGFTQADVGLALGTLYGNVFSQTTICRFEALQLSVKNMCKLKPLLNKWLEEADSS [F57V], -0.033 ± 0.028.

On to EDTPTSDDLEQFAKQFKQRRIKLGFTQADVGLALGTLYGNVFSQTTICRFAALQLSFKNMCKLKPLLNKWLEEADSS [E51A], for which the abundance fitness was -0.855 ± 0.072. In the case of EDTPTSDDLEQFAKQFKQRRIKLGFTQADVGLALGTLYGNVGSQTTICRFEALQLSFKNMCKLKPLLNKWLEEADSS [F42G] it was -0.397 ± 0.033.

On to EDTPTSDDLEQFAKQFKQRRCKLGFTQADVGLALGTLYGNVFSQTTICRFEALQLSFKNMCKLKPLLNKWLEEADSS [I21C], for which the abundance fitness is -0.204 ± 0.05. To EDTPTSDDLEQFWKQFKQRRIKLGFTQADVGLALGTLYGNVFSQTTICRFEALQLSFKNMCKLKPLLNKWLEEADSS [A13W] belongs -0.913 ± 0.14; to EDTPTSDDLEQFAKQFKQRRIKLGFTQADVGLALGTLYYNVFSQTTICRFEALQLSFKNMCKLKPLLNKWLEEADSS [G39Y], -0.533 ± 0.16.

Regarding EDTPTSDDLEQFAKQFKQRRIKLGFTQADVGLALGTLYRNVFSQTTICRFEALQLSFKNMCKLKPLLNKWLEEADSS [G39R], the abundance fitness was -0.25 ± 0.03. In the case of EDTPTSDDLEQFAKQFKQRRIKLGFTQADVGLALGTLRGNVFSQTTICRFEALQLSFKNMCKLKPLLNKWLEEADSS [Y38R] it was -0.27 ± 0.031. To EDTPTSDDLEQFAKEFKQRRIKLGFTQADVGLALGTLYGNVFSQTTICRFEALQLSFKNMCKLKPLLNKWLEEADSS [Q15E] belongs 0.018 ± 0.038; to EDTPTSDDLEQFAKQFKQRRIKLGFTQADVGLALGTLYGDVFSQTTICRFEALQLSFKNMCKLKPLLNKWLEEADSS [N40D], 0.016 ± 0.059; to EDTPTSDDLEQFAKQFKQRRIKLGFTQADVGLALGTLYGKVFSQTTICRFEALQLSFKNMCKLKPLLNKWLEEADSS [N40K], -0.016 ± 0.044. In the case of EDTPTSDALEQFAKQFKQRRIKLGFTQADVGLALGTLYGNVFSQTTICRFEALQLSFKNMCKLKPLLNKWLEEADSS [D8A], the abundance fitness was -0.006 ± 0.038.

The values are drawn from the Human Domainome abundance scans (Beltran et al. 2025).
